Source: paper PMC3898201

Experiments:
[1] = target: proteasome catalytic subunit β5 (in the purified rabbit 20S constitutive proteasome) (rabbit); test: FRET or BRET
[2] = target: proteasome catalytic subunit β2 (in the purified rabbit 20S constitutive proteasome) (rabbit); test: FRET or BRET

| FRET efficiency E [1] | FRET efficiency E (fluorophores swapped: LKSCy3:UKPCy5) [1] | FRET efficiency E [2] | Substance |
| --- | --- | --- | --- |
| 0.55 | 0.55 | 0.18 | proteasome catalytic subunit β1 (in the purified rabbit 20S constitutive proteasome) (natural protein) |
| – | – | 0.45 | proteasome catalytic subunit β5 (in the purified rabbit 20S constitutive proteasome) (natural protein) |
